According to patent US20190316150A1:

Legend:
Assay in all cases: cell-based or functional assay
[1] = molecular target: OsJAZ^33-p53 (Oryza sativa; human) (UniProt P04637)
[2] = molecular target: T1, NLS-GFP-OsJAZ^33 (SV40; Oryza sativa)
T1 sequence: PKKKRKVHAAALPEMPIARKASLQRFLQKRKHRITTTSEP

[3] = molecular target: T2, GFP-OsJAZ^23 (Oryza sativa)
T2 sequence: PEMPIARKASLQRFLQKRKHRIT

[4] = molecular target: T3, GFP-AtJAZ^FL (Arabidopsis thaliana) (UniProt Q9LMA8)
T3 sequence: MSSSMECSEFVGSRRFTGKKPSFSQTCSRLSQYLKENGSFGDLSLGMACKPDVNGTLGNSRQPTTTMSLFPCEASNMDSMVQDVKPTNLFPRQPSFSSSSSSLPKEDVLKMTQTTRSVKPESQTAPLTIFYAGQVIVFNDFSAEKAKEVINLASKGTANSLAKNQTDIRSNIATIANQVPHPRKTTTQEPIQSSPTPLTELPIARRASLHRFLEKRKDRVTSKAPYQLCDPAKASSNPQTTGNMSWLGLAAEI

B1: OsTIR1^F-box-OsCOI1B^LRR (receptor)
chain: MYPYDVPDYATYFPEEVVEHIFSFLPAQRDRNTVSLVCKVWYEIERLSRKHVTVPFCYAASPAHLLARFPRLESLAVKGKPRAAMYGLIPEDWGAYARPWVAELAAPLECLKALHLRRMVVTDDDLAALVRARGHMLQELKLDKCSGFSTDALRLVARSCRSLRTLFLEECSIADNGTEWLHDLAVNNPVLETLNFHMTELTVVPADLELLAKKCKSLISLKISDCDFSDLIGFFRMAASLQEFAGGAFIEQGELTKYGNVKFPSRLCSLGLTYMGTNEMPIIFPFSALLKKLDLQYTFLTTEDHCQLIAKCPNLLVLAVRNVIGDRGLGVVADTCKKLQRLRVERGDDDPGLQEEQGGVSQVGLTTVAVGCRELEYIAAYVSDITNGALESIGTFCKNLCDFRLVLLDREERITDLPLDNGVRALLRGCTKLRRFALYLRPGGLSDTGLGYIGQYSGIIQYMLLGNVGETDDGLIRFALGCENLRKLELRSCCFSEQALARAIRSMPSLRYVWVQGYKASKTGHDLMLMARPFWNIEFTPPSSENANRMREDGEPCVDSQAQILAYYSLAGKRSDCPRSVVPLYPA
In the case of B1, the coronatine-dependent degradation, western blot quantification, H9 hESCs, 50 µM coronatine 1 day [1] is reported as 90%, the coronatine-induced GFP degradation, flow cytometry, HEK-293T, pJAZ version 7 [2] is reported as greater than 95% and the coronatine-induced degradation, flow cytometry, several cell types carrying pJAZ and pRAIDRS [2] is reported as 90 to 99%. It also gave a coronatine-dependent GFP degradation, flow cytometry, HEK-293T, pJAZ version 6-Os23 [3] of 90% and a coronatine-induced GFP degradation, flow cytometry, HEK-293T, pJAZ version 6-AtFL [4] of 95%.
